Here are results for one protein from US6746859.

Data set [1] concerns the target T1, E. coli thioredoxin/human IL-11 fusion protein with enterokinase cleavage spacer, P20809.
T1 chain: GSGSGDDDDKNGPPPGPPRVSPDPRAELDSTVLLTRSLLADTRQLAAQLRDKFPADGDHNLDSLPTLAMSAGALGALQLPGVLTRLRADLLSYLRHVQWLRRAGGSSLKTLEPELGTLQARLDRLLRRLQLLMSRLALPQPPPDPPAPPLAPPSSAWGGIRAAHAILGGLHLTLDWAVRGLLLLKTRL

Data set [2] addresses T2, soybean trypsin inhibitor (STI, Sigma), P01070.
T2 chain: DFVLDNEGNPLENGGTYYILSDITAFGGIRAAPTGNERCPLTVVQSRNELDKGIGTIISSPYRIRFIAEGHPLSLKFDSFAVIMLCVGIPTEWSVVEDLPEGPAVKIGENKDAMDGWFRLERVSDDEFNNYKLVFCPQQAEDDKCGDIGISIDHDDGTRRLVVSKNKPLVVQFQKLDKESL

The target in data set [3] is T3, Gly-(Asp4)-Lys-βNA fluorogenic enterokinase substrate.
T3 chain: GDDDDK

Data set [4] has as its target bovine pancreatic trypsin inhibitor (BPTI, Sigma), P00974.

B1: CHO-produced recombinant bovine enterokinase catalytic domain (light chain) (protein)
chain: IVGGSDSREGAWPWVVALYFDDQQVCGASLVSRDWLVSAAHCVYGRNMEPSKWKAVLGLHMASNLTSPQIETRLIDQIVINPHYNKRRKNNDIAMMHLEMKVNYTDYIQPICLPEENQVFPPGRICSIAGWGALIYQGSTADVLQEADVPLLSNEKCQQQMPEYNITENMVCAGYEAGGVDSCQGDSGGPLMCQENNRWLLAGVTSFGYQCALPNRPGVYARVPRFTEWIQSFLH
Consider B1, for which the figures for the EFFICIENCY OF CLEAVAGE (relative molar activities) (relative molar activity) (in data set [1]; in data set [3]; in the data set with Trypsinogen) were 25, 1 and 1, respectively. Also, the “cleavage of fusion protein (SDS-PAGE)” value in data set [1] is “resulted in total and specific cleavage of this fusion protein into its two component domains (thioredoxin and IL-11)”. The “cleaving activity toward the fluorogenic enterokinase substrate Gly-(Asp4)-Lys-βNA” value in data set [2] was “This activity was inhibited by the addition of either soybean trypsin inhibitor (STI,Sigma) or bovine pancreatic trypsin inhibitor (BPTI, Sigma)”; in data set [4] it was “This activity was inhibited by the addition of either soybean trypsin inhibitor (STI,Sigma) or bovine pancreatic trypsin inhibitor (BPTI, Sigma)”.
